The text below walks through data of patent publication US20210380975A1.

Assay [1] deals with AKAP 150 (rat A-kinase anchor protein) (rat) (UniProt P24587). Put plainly: cell-based or functional assay.
Assay [2] has as its target IL-6 (human, in degenerative IVD conditioned media) (human) (UniProt P05231). The experiment in a line: cell-based or functional assay.
Chain of UniProt P05231 (P05231 30-212 limits assumed): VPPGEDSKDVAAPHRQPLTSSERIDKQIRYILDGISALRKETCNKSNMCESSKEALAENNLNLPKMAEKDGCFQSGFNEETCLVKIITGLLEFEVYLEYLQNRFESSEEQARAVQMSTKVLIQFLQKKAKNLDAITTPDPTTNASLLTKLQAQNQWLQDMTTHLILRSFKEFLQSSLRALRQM

Chain of UniProt P24587 (P24587 whole entry): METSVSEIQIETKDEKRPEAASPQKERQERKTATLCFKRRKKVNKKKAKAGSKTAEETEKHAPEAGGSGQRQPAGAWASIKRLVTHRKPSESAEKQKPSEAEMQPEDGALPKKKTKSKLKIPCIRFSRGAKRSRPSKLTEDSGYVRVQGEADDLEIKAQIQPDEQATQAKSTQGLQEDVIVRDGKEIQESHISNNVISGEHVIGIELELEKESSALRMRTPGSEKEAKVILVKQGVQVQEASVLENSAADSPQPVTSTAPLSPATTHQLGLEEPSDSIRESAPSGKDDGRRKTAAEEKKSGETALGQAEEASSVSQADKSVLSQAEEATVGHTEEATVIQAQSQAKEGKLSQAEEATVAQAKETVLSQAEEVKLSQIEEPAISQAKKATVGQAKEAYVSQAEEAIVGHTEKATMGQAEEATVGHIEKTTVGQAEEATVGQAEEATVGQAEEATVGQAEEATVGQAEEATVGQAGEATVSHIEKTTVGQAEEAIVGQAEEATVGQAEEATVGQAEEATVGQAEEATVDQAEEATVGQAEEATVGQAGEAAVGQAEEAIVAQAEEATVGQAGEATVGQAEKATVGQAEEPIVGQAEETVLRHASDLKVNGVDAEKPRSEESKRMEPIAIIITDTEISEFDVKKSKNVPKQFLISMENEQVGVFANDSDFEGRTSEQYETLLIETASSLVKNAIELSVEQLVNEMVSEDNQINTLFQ

With “AKAP inhibitor peptide St-Ht31 (Promega)”, in assay [1], the percentage of rat DRG neurons firing at 39° C. in degenerative IVD conditioned media stood at 15.5%.

Control peptide St-Ht31P (Promega) displayed a percentage of rat DRG neurons firing at 39° C. in degenerative IVD conditioned media in assay [1] of 61.9%.

In turn, “Mouse isotype control antibody (Life Technologies)” registered a maximum firing response of DRG neurons (Boltzmann fit) in assay [2] of 66%.
